± gives the uncertainty stated by the source.
Experiment: amyloid nucleation score (Sup35N fusion, yeast selection) (log enrichment); library NNK1; higher = more nucleation; inactive = no reads after selection
Summary of the method: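 For the nucleation score, DiMSum gave the log enrichment of output over input reads, centred on the mode score of non-aggregating sequences. Psi-negative yeast expressing Sup35N fused to peptides of 20 random codons were induced with 100 μM copper sulfate for 24 hours and grown 7 days at 30°C on medium lacking adenine and uracil. Input and output plasmid inserts were Illumina-sequenced, and sequences with under 100 input reads were excluded.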
MMAFDRRCLGFPMNVGYD gave an amyloid nucleation score of 1.07 ± 0.46. For RFAVCTNFANIFRLQEDQIR, the amyloid nucleation score was 0.481 ± 0.33. For YSDLSVHHYFWHQFRQKCDR, the amyloid nucleation score was 2.01 ± 0.21. Substance NMFTFLSKRR has an amyloid nucleation score of -0.928 ± 0.4. With SLNAMFIFLLAYKRGVYEYM the amyloid nucleation score was 1.25 ± 0.24. For VVIGILSEYATKTNWFCSIY, the amyloid nucleation score was 1.08 ± 0.2. LSHLLMRCGCIRLFVISMRE gave an amyloid nucleation score of 0.448 ± 0.49. YNVKSVCGRAPIGVMGRKWG showed an amyloid nucleation score of 0.618 ± 0.52. SNSAFCNGSVMCVEVSLRHA gave an amyloid nucleation score of 7.037 ± 0.062. FLVKSIRTVGL gave an amyloid nucleation score of 0.605 ± 0.36. YFDLWALSVLCCFFGVNSPF gave an amyloid nucleation score of 5.69 ± 0.087. Work on TALESFRHCLVQSNPGSQVV yielded an amyloid nucleation score of -0.217 ± 0.5. For ILIGRPQYIDRYMSSCVIIL, the amyloid nucleation score was “inactive”. For IGFHSMDFEQYFCYFSVKTK, the amyloid nucleation score was 0.616 ± 0.75. With HRSVGSRECRSSSEFYVLR the amyloid nucleation score was 3.77 ± 0.088. Substance YSLNTSTAWESAAAVTW has an amyloid nucleation score of 0.196 ± 0.4. For VNVKSVRYRKMSLGVYLVDW, the amyloid nucleation score was 0.261 ± 0.68. DLDKRMVSYDFKICGYKINF gave an amyloid nucleation score of 3.77 ± 0.1. In the case of QSVCSTCSRGPSHCAAGSV, the amyloid nucleation score is reported as 0.17 ± 0.31. FLYWLVDKLG showed an amyloid nucleation score of 0.37 ± 0.51. FLTLCVLNRLWH gave an amyloid nucleation score of 4.85 ± 0.11. With YYTCGMYPIYRCCLRTMYSA the amyloid nucleation score was -0.494 ± 0.22. IFFSCQVGYSAIARDARWTR gave an amyloid nucleation score of 2.04 ± 0.14. Work on WWDHVWGVR yielded an amyloid nucleation score of 0.31 ± 0.75. WFHSQVTQNYSVWLLSTNYS gave an amyloid nucleation score of -0.091 ± 0.56. VNIRVRD gave an amyloid nucleation score of 0.023 ± 0.33. For RILSDDDVARQNGNDDNLYP, the amyloid nucleation score was 3.22 ± 0.092. Substance YKAKGRNAVS has an amyloid nucleation score of -0.689 ± 1.6. In the case of KGTGRLIRLASAWAGMGMHL, the amyloid nucleation score is reported as -0.332 ± 1.1. Substance HVHNYNFIFAVWIHP has an amyloid nucleation score of 5.87 ± 0.062. Substance NNYNYLYTYNMQNQKQFIFM has an amyloid nucleation score of 7.281 ± 0.066. Substance RTINYTAMWCYS has an amyloid nucleation score of 0.721 ± 0.41. For IWNSVARFRYSSMGFVVSAV, the amyloid nucleation score was -0.702 ± 1.7. IYACRGQRVMRTRIKCVVIW gave an amyloid nucleation score of 0.525 ± 0.72. Substance KHYFCKMSV has an amyloid nucleation score of -0.029 ± 0.37. QYFPF showed an amyloid nucleation score of -1.26 ± 1.2. WYRYEPLVMTRQMSGVGPMR gave an amyloid nucleation score of 0.124 ± 0.33. Work on YMGYCYNTTKVCKLRQIYAG yielded an amyloid nucleation score of 1.71 ± 0.54. With FSSWQGMGKQYWPERIRCAD the amyloid nucleation score was 0.425 ± 0.46. For SYRPFLMLGAQLQPYRVSGS, the amyloid nucleation score was 1.32 ± 0.6. RLAWPRKSSSCN gave an amyloid nucleation score of 0.774 ± 0.45. QGRTRSYY showed an amyloid nucleation score of -0.301 ± 0.82. Substance PLARRVSAHILVRMNYRNFM has an amyloid nucleation score of -0.048 ± 0.37. Substance TSWFSYRLANCAFHSQGFSR has an amyloid nucleation score of 0.366 ± 0.38. In the case of VRKNSERGVK, the amyloid nucleation score is reported as -0.591 ± 0.4. With GNLRNMLMTYSSSVGNKLIF the amyloid nucleation score was -0.344 ± 0.57. Substance RYRSMHHFRVHDKHPMLGYA has an amyloid nucleation score of 1.34 ± 0.84. In the case of LLNQFLTRSASYTRGTESID, the amyloid nucleation score is reported as 0.295 ± 0.24. TLESCGW showed an amyloid nucleation score of 0.773 ± 0.22. With YEKVSDQGNLGLASIYLAGK the amyloid nucleation score was -0.159 ± 0.22. In the case of SYGDQSVEKSLRSTATPDPQ, the amyloid nucleation score is reported as 0.105 ± 0.35. In the case of PCTFWAEVRINRWSYYARQR, the amyloid nucleation score is reported as -0.856 ± 2.4. With RPSTLCFTIIRVYKLSRSPT the amyloid nucleation score was 2.65 ± 0.074. FHCGMGIF gave an amyloid nucleation score of -0.197 ± 0.32. In the case of IVRSAVRLELSGLPRCQGIS, the amyloid nucleation score is reported as -0.065 ± 0.95. In the case of VYCFCQNRSSFYGKMHLGMH, the amyloid nucleation score is reported as 1.25 ± 0.62. Substance QSLFFPFARFVTNILRYYKF has an amyloid nucleation score of -0.531 ± 0.45. With TSFFFHEQHHFKGNKFNFEV the amyloid nucleation score was 3.5 ± 0.18. EYGDDVLWMFSTILCVRGEW gave an amyloid nucleation score of -0.626 ± 0.47. With QIKVTGRRSSDEGSQGGWLL the amyloid nucleation score was 3.82 ± 0.081. In the case of HRRNMAKC, the amyloid nucleation score is reported as “inactive”. DSYDTTSNRAPVMLKVNYSM gave an amyloid nucleation score of -0.692 ± 0.64. ANFFICFLHLVCTKIQSSLL showed an amyloid nucleation score of 1.77 ± 0.52. Work on WMNFWHLFSVFLLFSAICWF yielded an amyloid nucleation score of -0.006 ± 0.61. Work on QLRAYEFGWETREELNSRPY yielded an amyloid nucleation score of -1.64 ± 2.4. LDAKVFRVALAYYLPPGP showed an amyloid nucleation score of 0.789 ± 0.53. Substance FLRFIRSVNFYVKEYAESLL has an amyloid nucleation score of -0.691 ± 0.52. For HSFGKTFGDCYRRHSYLVNE, the amyloid nucleation score was -0.437 ± 0.41. Work on RWIPQNMHQLWKASDGNERM yielded an amyloid nucleation score of -0.697 ± 0.41. Work on NHYCRFHFTLESFLAGHVAN yielded an amyloid nucleation score of 1.38 ± 0.23. Work on FIFHSIGRSKISYKS yielded an amyloid nucleation score of -0.229 ± 0.59. MFIVYRMDLEFM gave an amyloid nucleation score of 1.64 ± 0.51. With NLLSALNMVVFHNLEFYVIF the amyloid nucleation score was 2.58 ± 0.25. Substance YMIWTIFNMVSIGRPQFLRL has an amyloid nucleation score of -0.716 ± 0.56. Work on LKHDRSNR yielded an amyloid nucleation score of 0.345 ± 1.2. With VDVRNWCIWDWKGLSAGVGG the amyloid nucleation score was -0.643 ± 0.41. For GFGPTIYSFRSSGQGNGLMP, the amyloid nucleation score was -0.3 ± 0.27. For GYEHVKG, the amyloid nucleation score was -0.195 ± 0.46. SVARFNVWVVLSSRNVTCQS showed an amyloid nucleation score of 1.82 ± 0.12. With SFYLIPPSCGYISHFGISTG the amyloid nucleation score was “inactive”. RLTVSGVTLGSVTHAFCGAP showed an amyloid nucleation score of 0.267 ± 0.67. Substance DGTNSVRIASWLNIDEGAL has an amyloid nucleation score of -0.225 ± 0.42. Work on TLRVVMKWLAHTWFRHTLMR yielded an amyloid nucleation score of -0.083 ± 0.42. ISFLFMCYLWQGNNS showed an amyloid nucleation score of 6.24 ± 0.066. Work on PFVRVLTLGYAGVWNGRGKP yielded an amyloid nucleation score of 0.904 ± 0.57. Substance GFGSRRYFRAVLSCPR has an amyloid nucleation score of 0.852 ± 0.93.

From the supplement of paper PMC12042874
